Reference: patent publication US20240294670A1 (University of Texas, published 2024)

Columns and labels:
Test in all cases: anti-His co-IP of rCHI3L1 from Kupffer cell lysate, MS; listed under 'proteins bound to CHI3L1'
[1] = target: T1, Q3TF14_MOUSE (mouse, UniProt Q3TF14 2-432)
T1 construct: also called tr|Q3TF14|Q3TF14_MOUSE
T1 sequence: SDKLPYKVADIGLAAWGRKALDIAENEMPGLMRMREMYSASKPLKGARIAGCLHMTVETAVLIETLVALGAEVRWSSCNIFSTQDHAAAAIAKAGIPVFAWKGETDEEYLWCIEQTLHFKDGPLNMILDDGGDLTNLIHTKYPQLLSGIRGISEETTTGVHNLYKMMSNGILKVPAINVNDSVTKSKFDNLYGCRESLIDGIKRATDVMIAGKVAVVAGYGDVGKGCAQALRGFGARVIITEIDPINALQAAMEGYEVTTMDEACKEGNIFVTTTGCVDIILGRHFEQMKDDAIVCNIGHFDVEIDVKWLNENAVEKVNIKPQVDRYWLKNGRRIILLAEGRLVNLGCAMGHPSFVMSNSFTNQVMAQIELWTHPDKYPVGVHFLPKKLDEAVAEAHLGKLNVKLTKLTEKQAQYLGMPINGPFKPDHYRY
Protocol: (§1) CHI3L1 interacts with CD44 on KCs. To further understand how CHI3L1 mediates the function of KCs to recruit platelets, the inventors set out to identify its receptor on KCs. They isolated KCs from WT mice treated with APAP for 3 h and incubated the cells with His-tagged rCHI3L1. The cell lysate was subjected to immunoprecipitation using an anti-His antibody. The “pulled down” fraction was subjected to LC/MS analyses. A partial list of proteins identified, including CHI3L1 itself, is shown in (Extended Data Table 1). Because CD44 is a cell membrane protein, the inventors decided to investigate it is a receptor for CHI3L1. They performed/immunoprecipitation experiments using liver homogenates obtained from WT and CD44^{-/-} mice after APAP treatment. […] Moreover, the inventors incubated rhCHI3L1 with human CD44 and then immunoprecipitated with an anti-CD44 antibody. The data confirmed a direct binding between CHI3L1 and CD44 (FIG. 3C). Consistent with the notion that many cell types express CD44, they detected CD44 express on various hepatic non-parenchymal cells (NPCs) except B cells and DCs (summarized in Extended Data Table 2). However, when they incubated liver NPCs with His-tagged rCHI3L1, the inventors observed that the only CD44-expressing cells that could bind to CHI3L1 were KCs (FIG. 3D).

[2] = target: T2, Q3UQ71_MOUSE (mouse, UniProt Q3UQ71 1-554)
T2 construct: also called tr|Q3UQ71|Q3UQ71_MOUSE
T2 sequence: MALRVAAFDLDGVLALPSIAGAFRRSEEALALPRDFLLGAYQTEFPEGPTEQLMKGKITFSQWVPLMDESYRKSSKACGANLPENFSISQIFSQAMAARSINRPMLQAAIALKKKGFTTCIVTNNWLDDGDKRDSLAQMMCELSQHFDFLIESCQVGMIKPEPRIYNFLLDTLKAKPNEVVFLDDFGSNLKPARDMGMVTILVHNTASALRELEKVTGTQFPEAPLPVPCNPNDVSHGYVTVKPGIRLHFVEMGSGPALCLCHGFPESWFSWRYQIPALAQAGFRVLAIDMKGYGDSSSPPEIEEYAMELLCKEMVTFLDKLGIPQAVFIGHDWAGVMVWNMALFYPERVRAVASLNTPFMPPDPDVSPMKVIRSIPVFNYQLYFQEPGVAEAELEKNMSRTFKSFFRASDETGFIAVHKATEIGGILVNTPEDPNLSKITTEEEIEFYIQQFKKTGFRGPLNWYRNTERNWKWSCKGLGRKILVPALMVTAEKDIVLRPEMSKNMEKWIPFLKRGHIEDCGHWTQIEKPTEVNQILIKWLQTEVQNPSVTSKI
Protocol: as §1

[3] = target: T3, Q5FW97_MOUSE (mouse, UniProt Q5FW97 2-434)
T3 construct: also called tr|Q5FW97|Q5FW97_MOUSE
Protocol: as §1

[4] = target: T4, Q3UJ34_MOUSE (mouse, UniProt Q3UJ34 1-412)
T4 construct: also called tr|Q3UJ34|Q3UJ34_MOUSE
T4 sequence: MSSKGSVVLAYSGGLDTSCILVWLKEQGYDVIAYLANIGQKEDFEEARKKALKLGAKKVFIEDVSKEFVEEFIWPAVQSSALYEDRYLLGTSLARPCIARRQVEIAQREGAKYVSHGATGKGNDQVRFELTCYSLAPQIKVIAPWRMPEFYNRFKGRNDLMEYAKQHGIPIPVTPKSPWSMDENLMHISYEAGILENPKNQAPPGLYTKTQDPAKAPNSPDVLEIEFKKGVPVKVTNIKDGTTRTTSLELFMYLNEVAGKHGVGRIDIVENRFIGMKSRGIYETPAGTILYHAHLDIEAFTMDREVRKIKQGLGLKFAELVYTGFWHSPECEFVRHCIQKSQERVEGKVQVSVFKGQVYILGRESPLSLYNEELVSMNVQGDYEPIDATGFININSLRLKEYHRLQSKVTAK
Protocol: as §1

[5] = target: T5, Q3TJ66_MOUSE (mouse, UniProt Q3TJ66 2-364)
T5 construct: also called tr|Q3TJ66|Q3TJ66_MOUSE
T5 sequence: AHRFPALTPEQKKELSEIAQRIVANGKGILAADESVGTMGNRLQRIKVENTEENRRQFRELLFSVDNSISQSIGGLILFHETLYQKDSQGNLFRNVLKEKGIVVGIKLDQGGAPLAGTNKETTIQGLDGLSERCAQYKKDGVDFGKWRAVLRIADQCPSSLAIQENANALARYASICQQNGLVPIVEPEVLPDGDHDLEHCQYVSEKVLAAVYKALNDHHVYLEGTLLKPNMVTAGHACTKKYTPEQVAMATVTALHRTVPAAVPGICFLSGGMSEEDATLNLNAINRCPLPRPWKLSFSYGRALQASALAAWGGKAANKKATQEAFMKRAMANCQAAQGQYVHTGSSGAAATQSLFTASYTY
Protocol: as §1

Measured: binding result

T3 sequence (Q5FW97 entry or part of it limits assumed): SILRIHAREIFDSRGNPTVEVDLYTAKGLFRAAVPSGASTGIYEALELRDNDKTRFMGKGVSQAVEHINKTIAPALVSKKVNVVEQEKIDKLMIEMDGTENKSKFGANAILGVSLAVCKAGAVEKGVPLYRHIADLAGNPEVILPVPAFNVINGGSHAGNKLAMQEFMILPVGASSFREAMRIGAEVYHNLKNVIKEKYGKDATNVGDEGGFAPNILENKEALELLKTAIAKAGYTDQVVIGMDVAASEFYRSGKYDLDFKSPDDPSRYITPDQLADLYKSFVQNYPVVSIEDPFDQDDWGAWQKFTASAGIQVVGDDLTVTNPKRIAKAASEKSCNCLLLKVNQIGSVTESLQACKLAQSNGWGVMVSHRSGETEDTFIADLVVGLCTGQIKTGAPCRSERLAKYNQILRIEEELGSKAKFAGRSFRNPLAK

B1: recombinant mouse CHI3L1 (ligand)
chain: not shown
notes: His-tagged; also called mCHI3L1; mChi3l1
binds: [1] | [2] | [3] | [4] | [5]
